Target: T1, TON_0321 (CAS-Cas4) (Thermococcus onnurineus NA1, UniProt B6YTB9 1-222)
T1 sequence: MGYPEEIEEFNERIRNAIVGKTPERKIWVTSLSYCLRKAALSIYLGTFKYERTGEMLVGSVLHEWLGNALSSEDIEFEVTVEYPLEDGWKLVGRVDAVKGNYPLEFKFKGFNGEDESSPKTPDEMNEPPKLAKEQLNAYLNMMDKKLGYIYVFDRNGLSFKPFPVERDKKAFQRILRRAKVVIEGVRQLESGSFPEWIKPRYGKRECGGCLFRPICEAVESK
Assay: fluorescence anisotropy; 20 mM ZnSO4; 20 mM Tris-HCl pH 8.0, 100 mM NaCl, 0.5 mM DTT, 0.1 mg/ml BSA, 20 mM ZnSO4, 25 °C; 35 nM DNA (25 nM labeled), 0-1600 nM protein
Conditions: protein: recombinant; tags: N-terminal 6xHis (pET28a); label: 5' 6-FAM; single strand

Binder: ATTCTACCAGTGCCTTGCTAGGACATCTTTGCCCACCTGC (ssDNA) [ssDNA (Y0-1F)]
- binding result: binds

Reference: paper PMC12538437, “Branched DNA processing by a thermostable CAS-Cas4 from Thermococcus onnurineus: Expanding biochemical landscape of nuclease activity”
